# Reference: article PMC2528291 (Journal of molecular biology, 2001)
# Where two headings read alike, the source gives them in different places.
# Columns and labels:
# Assay in all cases: SEC
# [1] = target: flagellin (FliC) of S. typhimurium SJW1103 (S. typhimurium (endogenous in SJW1103)) (UniProt P06179)
# [2] = target: the molecule itself
# [3] = target: the molecule itself; remark: listed apart in the source
# Chain of flagellin (FliC) of S. typhimurium SJW1103 (S. typhimurium (endogenous in SJW1103)) (P06179 whole entry): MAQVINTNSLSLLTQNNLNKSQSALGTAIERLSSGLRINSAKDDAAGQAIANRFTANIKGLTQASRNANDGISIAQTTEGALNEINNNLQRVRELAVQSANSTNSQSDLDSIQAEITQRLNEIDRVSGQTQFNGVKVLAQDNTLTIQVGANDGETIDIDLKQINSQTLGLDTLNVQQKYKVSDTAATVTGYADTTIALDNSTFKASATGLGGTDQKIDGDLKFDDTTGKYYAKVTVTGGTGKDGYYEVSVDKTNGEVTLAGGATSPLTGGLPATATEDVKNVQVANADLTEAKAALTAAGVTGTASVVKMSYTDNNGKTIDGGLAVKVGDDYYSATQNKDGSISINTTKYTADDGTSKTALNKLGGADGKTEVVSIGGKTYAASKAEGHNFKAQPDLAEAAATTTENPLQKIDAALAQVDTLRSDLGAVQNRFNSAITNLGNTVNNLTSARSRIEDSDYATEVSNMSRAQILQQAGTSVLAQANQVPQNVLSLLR
molecule,measurement,setting,value
His6-FliS (from pET-FliS) (from UniProt P26609 1-135) (natural protein),stoichiometry N (FliS per FliC),[1],2
"FliS (native, cytosolic, of S. typhimurium SJW1103) (natural protein, S. typhimurium (endogenous in SJW1103), UniProt P26609 1-135, looked up) MYTASGIKAYAQVSVESAVMSASPHQLIEMLFDGANSALVRARLFLEQGDVVAKGEALSKAINIIDNGLKAGLDQEKGGEIATNLSELYDYMIRRLLQANLRNDAQAIEEVEGLLSNIAEAWKQISPKASFQESR",stoichiometry N,[2],2
"His6-FliS (from pET-FliS) (natural protein, S. typhimurium, UniProt P26609 1-135, looked up, [35S]methionine label (in the affinity blots only)) MYTASGIKAYAQVSVESAVMSASPHQLIEMLFDGANSALVRARLFLEQGDVVAKGEALSKAINIIDNGLKAGLDQEKGGEIATNLSELYDYMIRRLLQANLRNDAQAIEEVEGLLSNIAEAWKQISPKASFQESR",stoichiometry N,[3],2
